Numbering of substitutions follows the chain as printed.
B1: SKA0117 (antibody, V domains shown)
VH: QSLEESGGDLVKPEGSLTLTCTASGFSFSSSHYMCWVRQAPGKGLEWIACIYAGSSDNTYYASWAKGRFTISKTSSTTVTLQMTSLTAADTATYFCARDTYGYVGYASAGGFFNLWGPGTLVTVSS
VL: ALVMTQTPASVSAAVGGTVTINCQASHNIYSVLAWYQQKPGQRPRLLIYGASNLESGVPSRFKGSGSGTEYTLTISDLECDDAATYYCQSAYYSSSTGDNAFGGGTEVVVKG
notes: Recombinant rabbit monoclonal from B-cell cloning, expressed in FreeStyle 293-F cells; the first screen used B-cell culture supernatant; also called Anti-SG115 Antibody; rabbit Anti Fc-Mutation Antibody
B2: SKA0141 (antibody, V domains shown)
VH: QSLEESGGDLVKPGASLTLTCTASGFSFSSSYYMCWVRQAPGKGLEWIACIYAGSSGSTYYASWAKGRFTISKTSSTTVTLQMTSLTAADTATYFCARDGDENMLVGGYFNLWGPGTLVTVSS
VL: B1 VL with A9S, V32N, R45K, S96N, T97A, D99Y
notes: as for B1
B3: SKA0027 (antibody, V domains shown)
VH: QEQLVESGGGLVQPEGSLTLTCTASGFSFSSSDYMCWVRQAPGKGLEWIGCIYTGSGSTYYASWAKGRFTISKTSSTTVTLQMTSLTAADTATFFCARRGDSYSNYSFKLWGPGTLVTVSS
VL: AFELTQTPASVEAAVGGTVTIKCQASQNIYSNLAWYQQKPGQPPKLLIYTASSLASGVSSRFKGSGSGTEFTLTISDLECDDAATYYCQCTYINNGYGNTFGGGTEVVVKG
notes: as for B1
B4: SKA0171 (antibody, V domains shown)
VH: QSLEESGGGLVQPEGSLTLSCTASGFSFSSSYYMCWVRQAPGKGLEWIACIYGGNSVITYYANWAKGRFTISETSSTTVTLQMTSLTAADTATYFCAREVHYDYLYTTYGYANLWGPGTLVTVSS
VL: AIKMTQTPASVSAVVGGTVTINCQASETIYSGLAWYQQKPGQPPKLLIYDTANLETGVSSRFKGSGSGTEYTLTISDLECDDAATYFCLYAYYSGGSADNAFGGGTEVVVKG
notes: as for B1
B5: SKA0001 (antibody, V domains shown)
VH: QSVEESGGRLVTPGTPLTLTCTVSGFSLSYYAMNWVRQAPGKGLEWIGIIGISGGTYYASWAKGRFTISKSSSTTVDLKMTSPTTEDTATYFCARGGSAWGDLWGQGTLVTVSS
VL: DIVMTQTPSSVSAAVGGTVTINCQASQSISRLLAWYQQKPGQPPKVLMHDASDLASGVPSRFKGSGSGTEYTLTISDLECADAATYYCQSYYWGSSGDIGYPFGGGTEVVVKG
notes: as for B1
B6: SKA0028 (antibody, V domains shown)
VH: QSVEESGGRLVTPGTPLTLTCTASGFTISSYHMSWVRQAPGKGLEWIGIIHGSGNMWYASWAKGRFTISRTSTTVDLEITSPTTEDTATYFCARIRFWASSNYYYFYLWGQGTLVTVSS
VL: ALVMTQTPASVSEPVGGTVTINCQASQNIYSNLAWYQQKPGQRPRLLIYGASNLESGVPSRFRGSGSGTEFTLTISDLECADAATYYCQSAYWGNNNDGAFGGGTEVVVKG
notes: as for B1

The binders below were run against T1, anti-DENV E protein antibody comprising a modified IgG heavy chain constant region (SEQ ID NO: 116) (assay: SPR (Biacore T200), 25 C, pH 7.4; SKA antibody captured by anti-rabbit IgG, anti-DENV E protein antibody injected 0-400 nM).
T1 construct: also called anti-DENY E protein antibody; Fc-Mutated Antibody
T1 sequence (constant, as listed by the source limits assumed): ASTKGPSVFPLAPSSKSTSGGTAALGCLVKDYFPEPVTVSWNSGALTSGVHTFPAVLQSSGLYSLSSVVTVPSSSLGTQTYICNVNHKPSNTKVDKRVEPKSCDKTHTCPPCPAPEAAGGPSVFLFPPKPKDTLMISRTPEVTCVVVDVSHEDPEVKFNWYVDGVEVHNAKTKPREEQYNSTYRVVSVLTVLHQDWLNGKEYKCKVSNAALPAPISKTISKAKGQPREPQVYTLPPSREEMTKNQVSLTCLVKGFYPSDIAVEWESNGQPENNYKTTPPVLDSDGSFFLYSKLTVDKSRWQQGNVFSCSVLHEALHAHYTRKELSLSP
Text: (§1) Anti-rabbit IgG was immobilized onto FC 3 and 4 of a CMS sensor chip using an amine coupling kit (GE Healthcare). For the immobilization of anti-rabbit IgG, HBS-EP+, pH7.4 (GE Healthcare) buffer was used as running buffer. After the immobilization, running buffer was changed to phosphate pH7.4 buffer. Each antibody was captured onto FC4 of the sensor chip by anti-rabbit IgG. The amount of Anti Fc-Mutation Antibody to be captured was adjusted so that the number of resonance units (RU) was 100.

| Binder | kon [M⁻¹ s⁻¹] | Kd [nM] | koff [s⁻¹] |
| --- | --- | --- | --- |
| B1 | 126000 | – | – |
| B2 | 267000 | 5.04 | 0.00135 |
| B3 | 190000 | 1 | 0.000191 |
| B4 | 1.02e+06 | 1.45 | 0.00149 |
| B5 | 44400 | – | – |
| B6 | 116000 | – | 7.27e-05 |

These binders were tested against T1, anti-DENV E protein antibody comprising … (assay: SPR (Biacore T200), 25 C, pH 7.4; SKA antibody captured by anti-rabbit IgG, anti-DENV E protein antibody injected 0-400 nM; *reliability might be low).
Text: as §1

| Binder | Kd [nM] | koff [s⁻¹] |
| --- | --- | --- |
| B1 | 0.000275 | 3.46e-08 |
| B5 | 0.00278 | 1.23e-07 |
| B6 | 0.626 | – |

Reference: US20220195070A1 (Chugai, published 2022)
